Assay results as given in patent US20230080534A1 (SHANGHAI BIOTROY BIOTECHNIQUE, published 2023).
Each block holds one binder with its values, some of them ahead of it. No end group written: not given here.

Key:
[1] = target: T1, human SEMG2 full-length protein (human, UniProt Q02383 24-582, limits assumed); assay: biolayer interferometry (ForteBio Blitz or Gator)
T1 construct: also called SEMG2 protein; semenogelin 2
T1 sequence: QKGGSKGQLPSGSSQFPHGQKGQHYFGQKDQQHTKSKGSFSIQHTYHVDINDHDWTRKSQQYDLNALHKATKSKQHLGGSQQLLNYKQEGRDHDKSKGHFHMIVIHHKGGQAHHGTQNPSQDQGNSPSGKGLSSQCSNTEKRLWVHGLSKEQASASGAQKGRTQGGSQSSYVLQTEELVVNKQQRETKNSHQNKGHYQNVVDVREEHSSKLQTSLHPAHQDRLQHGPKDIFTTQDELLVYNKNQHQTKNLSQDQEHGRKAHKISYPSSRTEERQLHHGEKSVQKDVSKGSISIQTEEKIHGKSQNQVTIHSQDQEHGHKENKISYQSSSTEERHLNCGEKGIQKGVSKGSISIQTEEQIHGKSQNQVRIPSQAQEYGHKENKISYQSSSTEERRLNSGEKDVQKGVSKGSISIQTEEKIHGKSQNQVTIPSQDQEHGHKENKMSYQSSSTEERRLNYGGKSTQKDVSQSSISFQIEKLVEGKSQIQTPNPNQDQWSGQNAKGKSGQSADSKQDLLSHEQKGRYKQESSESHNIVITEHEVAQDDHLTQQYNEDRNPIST
Procedure: The equilibrium dissociation constant (KD) of the antibody of the present invention binding to human SEMG2 was determined by biolayer interferometry (ForteBio Bltz or Gator instrument). […] 100 μl of SD buffer, antibody and SEMG2 were added to a 96-well black polystyrene half area microplate, respectively. Select the sensor location based on the sample location layout. KD values were analyzed using molecular interaction analysis software. In the experiments of the assays, the affinity constants of murine monoclonal antibodies and human antibodies H88-67, H88-93 and H88-96 are shown in Table 8, and the affinity and dissociation curves of SEMG2 and corresponding proteins are shown in FIG. 25.

[2] = target: T1, human SEMG2 full-length protein; assay: ELISA, immobilized antigen SEMG2 (1-582)
Text: (§1) To clearly distinguish the binding epitopes of blocking antibodies (i.e., antibodies that can inhibit the binding between SEMG2 and CD27) and non-blocking antibodies, a corresponding ELISA analysis method was established. […] Anti-mouse or anti-rabbit secondary antibodies were then used to detect the corresponding bound antibodies.

AIEKLVEGKSQIQ = target: T2, AIEKLVEGKSQIQ (not fully specified); assay: ELISA, immobilized peptide AIEKLVEGKSQIQ
T2 construct: member of the group m41; the text speaks of glycine substitution, the sheet prints alanine
T2 peptide: AIEKLVEGKSQIQ
Text: (§2) FIG. 20 depicts the value detected by ELISA, i.e., OD₄₅₀ absorbance. […] This experiment is used to determine the precise amino acid epitopes that different monoclonal antibodies bind to, and the relative importance of each amino acid to the binding antibody.

QAEKLVEGKSQIQ = target: T3, QAEKLVEGKSQIQ (not fully specified); assay: ELISA, immobilized peptide QAEKLVEGKSQIQ
T3 construct: member of the group m41; the text speaks of glycine substitution, the sheet prints alanine
T3 peptide: QAEKLVEGKSQIQ
Text: as §2

QIAKLVEGKSQIQ = target: T4, QIAKLVEGKSQIQ (not fully specified); assay: ELISA, immobilized peptide QIAKLVEGKSQIQ
T4 construct: member of the group m41; the text speaks of glycine substitution, the sheet prints alanine
T4 peptide: QIAKLVEGKSQIQ

QIEALVEGKSQIQ = target: T5, QIEALVEGKSQIQ (not fully specified); assay: ELISA, immobilized peptide QIEALVEGKSQIQ
T5 construct: member of the group m41; the text speaks of glycine substitution, the sheet prints alanine
T5 peptide: QIEALVEGKSQIQ
Text: as §2

QIEKAVEGKSQIQ = target: T6, QIEKAVEGKSQIQ (not fully specified); assay: ELISA, immobilized peptide QIEKAVEGKSQIQ
T6 construct: alanine at this position
T6 peptide: QIEKAVEGKSQIQ
Text: as §2

QIEKLAEGKSQIQ = target: T7, QIEKLAEGKSQIQ (not fully specified); assay: ELISA, immobilized peptide QIEKLAEGKSQIQ
T7 construct: member of the group m41; the text speaks of glycine substitution, the sheet prints alanine
T7 peptide: QIEKLAEGKSQIQ
Text: as §2

QIEKLVAGKSQIQ = target: T8, QIEKLVAGKSQIQ (not fully specified); assay: ELISA, immobilized peptide QIEKLVAGKSQIQ
T8 construct: member of the group m41; the text speaks of glycine substitution, the sheet prints alanine
T8 peptide: QIEKLVAGKSQIQ
Text: as §2
To further precisely define the exact epitopes (specific to the level of single amino acid) to which blocking antibodies MM02, MM05, MM07, MM08, MM13, MM14 bind, corresponding ELISA analysis method was established. […] Anti-mouse or anti-rabbit secondary antibodies were then used to detect the corresponding bound antibodies.

QIEKLVEAKSQIQ = target: T9, QIEKLVEAKSQIQ; assay: ELISA, immobilized peptide QIEKLVEAKSQIQ
T9 construct: member of the group m41; position 504 is glycine in SEMG2 and the sheet prints alanine there
T9 peptide: QIEKLVEAKSQIQ
Text: as §2

QIEKLVEGASQIQ = target: T10, QIEKLVEGASQIQ (not fully specified); assay: ELISA, immobilized peptide QIEKLVEGASQIQ
T10 construct: member of the group m41; the text speaks of glycine substitution, the sheet prints alanine
T10 peptide: QIEKLVEGASQIQ
Text: as §2

QIEKLVEGKAQIQ = target: T11, QIEKLVEGKAQIQ (not fully specified); assay: ELISA, immobilized peptide QIEKLVEGKAQIQ
T11 construct: alanine at this position
T11 peptide: QIEKLVEGKAQIQ
Text: as §2

QIEKLVEGKSAIQ = target: T12, QIEKLVEGKSAIQ (not fully specified); assay: ELISA, immobilized peptide QIEKLVEGKSAIQ
T12 construct: alanine at this position
T12 peptide: QIEKLVEGKSAIQ
Text: as §2

QIEKLVEGKSQAQ = target: T13, QIEKLVEGKSQAQ (not fully specified); assay: ELISA, immobilized peptide QIEKLVEGKSQAQ
T13 construct: member of the group m41; the text speaks of glycine substitution, the sheet prints alanine
T13 peptide: QIEKLVEGKSQAQ
Text: as §2

QIEKLVEGKSQIA = target: T14, QIEKLVEGKSQIA (not fully specified); assay: ELISA, immobilized peptide QIEKLVEGKSQIA
T14 construct: alanine at this position
T14 peptide: QIEKLVEGKSQIA
Text: as §2

[3] = target: T15, SEMG2(497-509) polypeptide QIEKLVEGKSQIQ (human); assay: ELISA, immobilized peptide QIEKLVEGKSQIQ
T15 peptide: QIEKLVEGKSQIQ
Text: as §2

SEMG2(354-403) fragment = target: T16, SEMG2(354-403) fragment (human); assay: ELISA, immobilized antigen SEMG2 (354-403)
T16 peptide: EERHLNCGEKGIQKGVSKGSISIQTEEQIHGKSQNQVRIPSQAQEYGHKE
Text: as §1

SEMG2(442-453) fragment = target: T17, SEMG2(442-453) fragment (human); assay: ELISA, immobilized antigen SEMG2 (442-453)
T17 peptide: IHGKSQNQVTIP
Text: as §1

[4] = target: T15, SEMG2(497-509) polypeptide QIEKLVEGKSQIQ; assay: ELISA, immobilized antigen SEMG2 (497-509)
Text: as §1

SEMG2(563-574) fragment = target: T18, SEMG2(563-574) fragment (human); assay: ELISA, immobilized antigen SEMG2 (563-574)
T18 peptide: VAQDDHLTQQYN
Text: as §1

[5] = target: T1, human SEMG2 full-length protein; assay: ELISA, plate coated with SEMG2 protein, anti-mouse secondary antibody; the EC50 table prints no unit, the axis is log (antibody concentration, nM)
[6] = target: T1, human SEMG2 full-length protein; assay: ELISA (FIG. 21B-D)
[7] = target: T19, BSA-conjugated human SEMG2 (497-509) polypeptide (human, also: coupled to BSA, site not given here); assay: ELISA (FIG. 21B-D)
T19 peptide: QIEKLVEGKSQIQ

[8] = target: T1, human SEMG2 full-length protein; assay: ELISA on SEMG2; the EC50 table prints no unit, the axis is log (antibody concentration, nM)

- Kd [1]: 2.34 nM
- A450 absorbance [2]: 1.13
- OD450 absorbance (AIEKLVEGKSQIQ): 0.942
- OD450 absorbance (QAEKLVEGKSQIQ): 0.671
- OD450 absorbance (QIAKLVEGKSQIQ): 0.544
- OD450 absorbance (QIEALVEGKSQIQ): 0.789
- OD450 absorbance (QIEKAVEGKSQIQ): 0.213
- OD450 absorbance (QIEKLAEGKSQIQ): 0.509
- OD450 absorbance (QIEKLVAGKSQIQ): 0.566
- OD450 absorbance (QIEKLVEAKSQIQ): 0.824
- OD450 absorbance (QIEKLVEGASQIQ): 0.939
- OD450 absorbance (QIEKLVEGKAQIQ): 0.023
- OD450 absorbance (QIEKLVEGKSAIQ): 1.22
- OD450 absorbance (QIEKLVEGKSQAQ): 0.798
- OD450 absorbance (QIEKLVEGKSQIA): 1.19
- OD450 absorbance [3]: 1.26
- A450 absorbance (SEMG2(354-403) fragment): 0.012
- binding result (SEMG2(354-403) fragment): no binding
- A450 absorbance (SEMG2(442-453) fragment): 0.008
- binding result (SEMG2(442-453) fragment): no binding
- A450 absorbance [4]: 1.14
- A450 absorbance (SEMG2(563-574) fragment): 0.001
- binding result (SEMG2(563-574) fragment): no binding
- EC50 [5]: 0.418 nM
B1: MM08 (antibody, IgG1, V domains shown)
VH: QVQLQQPGAELVRPGASVKLSCKSSDYTFTRYWMNWVKQRPGQGLEWIGMIDPSDSETHHNQMFKDKATLTVDKSSSTAYMQLSSLTSEDSAVYFCARYLGGKEGSFDYWGQGTTLTVSS
VL: DIVLTQSPSSLAVSAGERVTMSCKSSQSLFNSRTRKNYLAWYQQKPGQSPKLLLYWASTRESGVPDRFTGSGSGTDFTLTISSVKTEDLAVYYCKQSYELPWTFGGGTKLEMKR

- fold higher affinity than the parent antibody (H88-67) [6]: > 10 fold
- fold higher affinity than the parent antibody (H88-67) [7]: > 10 fold
- EC50 [8]: 0.614 nM
B2: 67-3-67-3 (antibody, V domains shown)
VH: QVQLLESGGGVVQPGRSLRLSCAASGFTFSSYAMHWVRQASGKGLEWVAVISYDGSNKYYADSVKGRFTISRDNSKNTLYLQMNSLRAEDTAVYYCARMDNHGSPDYWGQGTLVTVSS
VL: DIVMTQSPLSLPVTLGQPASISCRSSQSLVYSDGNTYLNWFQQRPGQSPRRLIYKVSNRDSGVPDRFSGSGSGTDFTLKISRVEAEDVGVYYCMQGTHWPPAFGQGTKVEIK

- fold higher affinity than the parent antibody (H88-67) [6]: > 10 fold
- fold higher affinity than the parent antibody (H88-67) [7]: > 10 fold
- EC50 [8]: 0.272 nM
B3: 67-9-67-3 (antibody, V domains shown)
VH: QVQLLESGGGVVQPGRSLRLSCAASGFTFSSYAMHWVRQASGKGLEWVAVISYDGSNKYYADSVKGRFTISRDNSKNTLYLQMNSLRAEDTAVYYCARMDSGGSPDYWGQGTLVTVSS
VL: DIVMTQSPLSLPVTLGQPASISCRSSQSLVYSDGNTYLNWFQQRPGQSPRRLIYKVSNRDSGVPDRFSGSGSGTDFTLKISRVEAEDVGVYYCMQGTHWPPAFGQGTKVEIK

- fold higher affinity than the parent antibody (H88-67) [6]: > 10 fold
- fold higher affinity than the parent antibody (H88-67) [7]: > 10 fold
- EC50 [8]: 0.537 nM
B4: 67-3-67-4 (antibody, V domains shown)
VH: QVQLLESGGGVVQPGRSLRLSCAASGFTFSSYAMHWVRQASGKGLEWVAVISYDGSNKYYADSVKGRFTISRDNSKNTLYLQMNSLRAEDTAVYYCARMDNHGSPDYWGQGTLVTVSS
VL: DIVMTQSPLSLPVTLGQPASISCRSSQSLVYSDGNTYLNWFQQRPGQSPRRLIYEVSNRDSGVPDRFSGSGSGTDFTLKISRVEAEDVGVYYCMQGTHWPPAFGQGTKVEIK

- fold higher affinity than the parent antibody (H88-67) [6]: > 10 fold
- fold higher affinity than the parent antibody (H88-67) [7]: > 10 fold
- EC50 [8]: 0.68 nM
B5: 67-3-67-5 (antibody, V domains shown)
VH: QVQLLESGGGVVQPGRSLRLSCAASGFTFSSYAMHWVRQASGKGLEWVAVISYDGSNKYYADSVKGRFTISRDNSKNTLYLQMNSLRAEDTAVYYCARMDNHGSPDYWGQGTLVTVSS
VL: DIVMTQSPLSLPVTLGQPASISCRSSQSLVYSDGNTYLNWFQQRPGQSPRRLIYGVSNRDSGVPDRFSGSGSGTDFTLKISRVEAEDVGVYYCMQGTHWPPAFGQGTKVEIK

- Kd [1]: 1.82 nM
- A450 absorbance [2]: 1.14
- OD450 absorbance (AIEKLVEGKSQIQ): 0.919
- OD450 absorbance (QAEKLVEGKSQIQ): 0.833
- OD450 absorbance (QIAKLVEGKSQIQ): 0.48
- OD450 absorbance (QIEALVEGKSQIQ): 0.822
- OD450 absorbance (QIEKAVEGKSQIQ): 0.123
- OD450 absorbance (QIEKLAEGKSQIQ): 0.814
- OD450 absorbance (QIEKLVAGKSQIQ): 0.899
- OD450 absorbance (QIEKLVEAKSQIQ): 0.58
- OD450 absorbance (QIEKLVEGASQIQ): 0.79
- OD450 absorbance (QIEKLVEGKAQIQ): 0.296
- OD450 absorbance (QIEKLVEGKSAIQ): 1.16
- OD450 absorbance (QIEKLVEGKSQAQ): 0.509
- OD450 absorbance (QIEKLVEGKSQIA): 1.26
- OD450 absorbance [3]: 1.19
- A450 absorbance (SEMG2(354-403) fragment): 0.001
- binding result (SEMG2(354-403) fragment): no binding
- A450 absorbance (SEMG2(442-453) fragment): 0.011
- binding result (SEMG2(442-453) fragment): no binding
- A450 absorbance [4]: 1.14
- A450 absorbance (SEMG2(563-574) fragment): 0.012
- binding result (SEMG2(563-574) fragment): no binding
B6: MM07 (antibody, V domains shown)
VH: QIQLVQSGPELKKPGETVRISCKASGYTLTTAGMQWVQKIPGKGLKWIGWINTHSGVAEFAEDFKGRFAFSLETSANTAYLQIRNLKNEDTATYFCARLGLLGYWGQGTTLTVSS
VL: DILLTQSPAILSVSPGERVSFSCRASQSIGTTIHWYQQRTNGSPRLLIKYASESISGIPSRFSGSGSGTDFTLSINSVESEDIADYYCQQSNSWPWTFGGGTKLEIKR
notes: The VH and VL begin with what look like leader peptides (MDWLW..., MVSSAQ...)

- EC50 [5]: 0.444 nM
B7: MM15 (antibody, IgG2a, V domains shown)
VH: QVQLKESGPGLVAPSQSLSITCTVSGFSLTRYGVSWVRQTPGKGLEWLGIIWGDGSTNYHSALISRLSISKDNSKSQVFLKLNSLQTDDTATYYCAKQERFSDGYYDGFAYWGQGTLVTVSA
VL: QIVLTQSPAIMSASPGEKVTITCSASSSVSYMHWFQQKPGTSPKLWIYSTSNLASGVPARFSGSGSGTSYSLTISRMEAEDAATYYCQQRSSYPFTFGSGTKLEIKR
